Measured values reported in patent publication US20210087294A1 (University of Pennsylvania, published 2021).

Legend:
[1] = biological target: T1, murine fibroblast activation protein (FAP) (murine, UniProt P97321 1-761); experiment: flow cytometry on BALB/c 3T3 cells expressing a murine FAP transgene
T1 construct: whole, on cells; also called mouse FAP; murine FAP
T1 sequence (looked up): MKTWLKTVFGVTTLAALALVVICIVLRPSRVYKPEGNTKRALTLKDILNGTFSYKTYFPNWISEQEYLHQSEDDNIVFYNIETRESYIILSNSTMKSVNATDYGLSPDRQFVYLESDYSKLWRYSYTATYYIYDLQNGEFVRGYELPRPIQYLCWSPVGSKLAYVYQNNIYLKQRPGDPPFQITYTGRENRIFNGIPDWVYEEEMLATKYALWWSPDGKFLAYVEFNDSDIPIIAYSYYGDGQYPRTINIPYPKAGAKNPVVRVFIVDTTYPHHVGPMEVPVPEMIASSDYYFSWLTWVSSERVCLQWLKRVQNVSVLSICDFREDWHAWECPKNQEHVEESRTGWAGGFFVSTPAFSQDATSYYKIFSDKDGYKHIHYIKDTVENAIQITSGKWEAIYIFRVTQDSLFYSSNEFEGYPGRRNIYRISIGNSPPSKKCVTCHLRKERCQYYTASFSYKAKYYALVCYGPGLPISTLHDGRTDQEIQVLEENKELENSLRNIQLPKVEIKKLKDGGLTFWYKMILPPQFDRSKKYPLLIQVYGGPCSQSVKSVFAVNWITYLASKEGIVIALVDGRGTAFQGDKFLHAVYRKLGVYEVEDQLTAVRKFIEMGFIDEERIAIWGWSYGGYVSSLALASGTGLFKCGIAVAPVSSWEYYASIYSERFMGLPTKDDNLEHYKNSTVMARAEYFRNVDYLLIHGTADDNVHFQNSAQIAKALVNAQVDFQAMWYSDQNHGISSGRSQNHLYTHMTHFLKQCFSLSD
From the text: (§1) On day 241, 2017 spleens were harvested, a single cell suspension prepared, and splenocytes fused with sp2/0 cells by the UPENN Hybridoma Core Facility. Hyridomas supernatants were initially screened by FACS on MC KOSA parental (FAP null) vs. canine FAP-transgene expressing MC KOSA.K9FAP using hybridoma supernatants as the primary antibodies and AF488 goat anti-mouseIgG as a secondary. Clone 4G5 identified as reactive to transduced cells but not parental cells and screened on additional cells to confirm reactivity with FAP expressing but not FAP-negative cells: Human primary fibroblasts, BALB/c 3T3 expressing murine or human FAP transgenes, canine primary fibroblasts, SK KOSA (FAP expressing), and BALB/c 3T3 (FAP negative) cells. 4G5 was then determined to be an IgG1k isotype antibody using (Thermo Fisher Rapid ELISA Mouse mAb Isotyping Kit #37503)
(§2) BALB/c 3T3 fibroblast cells transduced to express full-length canine FAP were then used to immunize 14 week old BALB/c FAP^{-/-} mice. All injections were given intraperitoneally and consisted of 1×10⁷ cells in 0.5 ml sterile PBS. The initial immunization was followed by six booster immunizations at regular intervals over the next eight months. At the conclusion of the study, spleens were harvested, and the resulting single-cell suspensions were used to generate hybridomas via fusion with sp2/0 cells. […]

[2] = biological target: T2, human fibroblast activation protein (FAP) (human, UniProt Q12884 1-760); experiment: flow cytometry on human primary fibroblasts and on BALB/c 3T3 cells expressing a human FAP transgene
T2 construct: whole, on cells; also called human FAP; huFAP
T2 sequence (looked up): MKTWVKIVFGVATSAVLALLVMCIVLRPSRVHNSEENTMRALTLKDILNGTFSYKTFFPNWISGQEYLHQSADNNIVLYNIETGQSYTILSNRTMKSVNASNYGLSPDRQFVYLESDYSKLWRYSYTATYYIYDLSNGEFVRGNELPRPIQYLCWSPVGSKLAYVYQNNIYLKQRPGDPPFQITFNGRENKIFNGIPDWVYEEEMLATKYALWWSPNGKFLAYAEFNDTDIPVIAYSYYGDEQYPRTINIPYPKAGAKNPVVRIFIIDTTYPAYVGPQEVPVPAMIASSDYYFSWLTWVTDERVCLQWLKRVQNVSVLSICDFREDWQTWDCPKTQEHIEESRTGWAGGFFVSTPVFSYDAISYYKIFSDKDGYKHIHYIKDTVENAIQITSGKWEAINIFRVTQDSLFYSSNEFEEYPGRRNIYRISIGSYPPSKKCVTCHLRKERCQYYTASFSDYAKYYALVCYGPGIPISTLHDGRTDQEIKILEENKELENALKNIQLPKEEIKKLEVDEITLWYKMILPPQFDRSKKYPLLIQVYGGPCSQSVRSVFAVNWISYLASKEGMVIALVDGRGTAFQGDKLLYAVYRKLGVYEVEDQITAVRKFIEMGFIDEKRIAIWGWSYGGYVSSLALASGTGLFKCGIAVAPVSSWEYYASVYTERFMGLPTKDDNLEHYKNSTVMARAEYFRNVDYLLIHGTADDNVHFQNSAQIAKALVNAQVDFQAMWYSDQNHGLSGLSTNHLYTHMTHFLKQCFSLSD
From the text: as §1, §2

B1: 4G5 anti-canine FAP antibody (antibody, V domains shown)
VH: QVQLQQPGAELVKPGASVKLSCKASGYTITSYSLHWVKQRPGQGLEWIGEINPANGDHNFSEKFEIKATLTVDSSSNTAFMQLSRLTSEDSAVYYCTRLDDSRFHWYFDVWGAGTTVTVSS
VL: QIVLTQSPALMSASPGEKVTMTCTASSSVSYMYWYQQKPRSSPKPWIFLTSNLASGVPARFSGRGSGTSFSLTISSMEAEDAATYYCQQWSGYPPITFGSGTKLEIK
notes: Mouse hybridoma monoclonal antibody, tested as hybridoma supernatant or immunoglobulin; also called clone 4G5; 4G5 immunoglobulin
Question: Which results are given for B1?
Answer: binding result [1]: binds; binding result [2]: binds
